Earlier results, collected in US6406710B1, “Protein occlusion for delivery of small molecules” (priority 1998, dated 2002).

Conditions: relatively high doses, human clinical trials

B1: BDNF: Brain Derived Neurotrophic Factor, a neurotrophin proposed as carrier protein (protein, UniProt P23560 19-247, looked up)
Neurotrophic factor BDNF …: APMKEANIRGQGGLAYPGVRTHGTLESVNGPKAGSRGLTSLADTFEHVIEELLDEDQKVRPNEENNKDADLYTSRVMLSSQVPLEPPLLFLLEEYKNYLDAANMSMRVRRHSDPARRGELSVCDSISEWVTAADKKTAVDMSGGTVTVLEKVPVSKGQLKQYFYETKCNPMGYTKEGCRGIDKRHWNSQCRTTQSYVRALTMDSKKRIGWRFIRIDTSCVCTLTIKRGR
tolerability: well tolerated with insignificant adverse effects
